Measured values from patent US20220073920.
Where two headings read alike, the source gives them in different places.

Legend:
[1] = test system: Human adenovirus type 2 whole virion (HAdV-2) (Human adenovirus 2); conditions: ELASA; DPBS + 3 mM MgCl2 + 20 mM NaCl (printed NaCl2), pH 7.4, room temperature; n=7
[2] = test system: Human adenovirus type 2 whole virion (HAdV-2) (Human adenovirus 2); conditions: ELASA; DPBS + 3 mM MgCl2 + 20 mM NaCl (printed NaCl2), pH 7.4, room temperature; n=6

Sequence | Kd [1] [nM] | Kd [2] [nM]
GTGCCAGCTATGCCATTGGGCGGGTCGTCCAATTCGAGAGGTCCCCTAGCGTCTATCTCTGCTGC [aptamer 20] | 75.9 | –
GTGCCAGCTATGCCATTGGGGGACAATATCGCAGTGCATCTTCCTCTAGCGTCTATCTCTGCTGC [aptamer 10] | – | 3.6
